Results taken from PMC5559640.

Tested on: Pho7 DBD, Pho7(279-368) (Schizosaccharomyces pombe)
Test: EMSA
Conditions: EMSA: 50 mM Tris-HCl pH 7.4, 10% glycerol, 340 ng poly(dI-dC), 0.6-1 pmol DNA in 10 ul, about 50 mM NaCl and 0.02% Triton X-100 from 2 ul protein diluent …; for binding signal: 27 ng Pho7 DBD, 1 pmol DNA

Row | Sequence | binding signal [% DNA bound] | other results
1 | CAACAGGGGAATAGTCGCTGCTTGAAACATCCGGAAATAG (double strand) [pho1 site 1 40-bp DNA] | – | binding signal (fold affinity vs site 2 (N5)) (8.3-66 ng Pho7 DBD): 0.5
2 | CCGGAAATAGTTTTATTCGGAAATTAAAAACAAGTTTATGGCG (double strand) [pho1 site 2 43-bp DNA] | – | binding signal (fold affinity vs site 1 (N4)) (8.3-66 ng Pho7 DBD): 2
3 | TTTCCTTCGGACAAACAAATCAGT (double strand) [tgp1 24-bp Mut2 (TT to AA)] | 45 | –
4 | TTTCCTTCGGACATTCAAATCAGT (double strand) [tgp1 24-bp WT] | 81 | –
5 | TTTCCTTCGGACATTCTTATCAGT (double strand) [tgp1 24-bp Mut3 (AA to TT)] | 23 | –
